Laboratory results taken from patent publication US20140370037A1 (published 2014).

T1: human DLL3 antigen (human, UniProt Q9NYJ7 27-492, limits assumed)
T1 construct: also called immobilized human DLL3; recombinant human DLL3
T1 sequence (looked up): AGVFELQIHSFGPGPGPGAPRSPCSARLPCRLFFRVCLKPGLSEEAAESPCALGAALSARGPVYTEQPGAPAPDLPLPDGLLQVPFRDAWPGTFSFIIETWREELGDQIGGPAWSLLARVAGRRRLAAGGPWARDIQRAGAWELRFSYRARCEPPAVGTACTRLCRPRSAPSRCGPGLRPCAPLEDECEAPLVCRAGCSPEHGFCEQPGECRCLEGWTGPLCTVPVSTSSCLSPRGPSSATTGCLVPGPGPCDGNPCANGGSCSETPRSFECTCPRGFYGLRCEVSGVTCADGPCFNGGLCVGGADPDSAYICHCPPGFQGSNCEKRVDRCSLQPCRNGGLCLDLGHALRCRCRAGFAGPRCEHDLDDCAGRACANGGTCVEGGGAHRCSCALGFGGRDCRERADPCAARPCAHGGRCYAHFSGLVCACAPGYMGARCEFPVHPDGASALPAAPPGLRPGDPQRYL


Target: T1, human DLL3 antigen
Assay: ELISA or flow cytometry screen

Binder | binding result
SC16.124 (antibody, V domains shown, murine mAb) VH: EVQLQQSGPELVKPGASVKMSCKASGYTFTSYVMHWVKQKPGQGLEWIGYINPYNDGTKYNEKFKGKATLTSDKSSSTAYMELSSLTSEDSAVYYCARGALYYGNYLGYFDVWGAGTTVTVSS VL: DIQMTQSPASQSASLGESVTITCLASQTIGTWLAWYQQKPGKSPQLLISAATSLADGVPSRFSGSGSGTKFSFKISSLQAEDFVSYYCQQLYSTPWTFGGGTKLEIK | binds
SC16.114 (antibody, V domains shown, murine mAb) VH: EVQLQQSGAELVKPGASVKLSCTASGFNIKDTYIHWVKQRPEQGLEWIGRIDPANGNTKYDPKFQGKATITPDTSSNTAYLQLSSLTSEDTAVYYCARSWRNYGSSFWYFDVWGAGTTVTVSS VL: QIVLSQSPAILSASPGEKVTMTCRASSSVSYMHWYQQKPGSSPKPWIYATSNLASGVPARFSGSGSGTSYSLTISRVEAEDAATYYCQQWSSNPYTFGGGTKLEIKR | binds
SC16.11 (antibody, V domains shown, murine mAb) VH: QIQLVQSGPELKKPGETVKISCKASGYTFTDYSMHWVKQAPGKGLKWMGWINTETVEPTYADDFMGRFAFSLETSASTAFLQINNLENEDTATYFCARFGSYAMDYWGQGTSVTVSS VL: not shown | binds
SC16.111 (antibody, V domains shown, murine mAb) VH: EVQLQQSGPELEKPGASVKISCKASGYSFTGYNMNWVKQSNGKSLEWIGNIDPYYGGSSYKQKFEGKATLTVDKSSSTAYMQLKSLTSEDSAVYYCARGGSNFFDYWGQGTTLTVSS VL: DIQMTQSPASLAASVGETVTITCRASENIYYSLAWYQQKQGKSPQLLIYNANSLEDGVPSRFSGSGSGTQYSMKINSMQPEDTATYFCKQTYDVPLTFGAGTKLELK | binds
SC16.118 (antibody, V domains shown, murine mAb) VH: EVQLQQSGPDLVKPGASVKISCKASGYSFTGYYMHWVKQSHGKSLEWIGRVNPNNGGTSYNQKFKGKAILTADKSSSTAYMELRSLTSEDSAVYYCARGSYDYAEGWGQGTLVTVSA VL: DIVLTQSPASLAVSLGQRATISCKASQSVDYDGDSYLTWYQQKPGQPPKLLIYAASNLESGIPARFSGSGSGTDFTLNIHPVEEEDAATYYCQQSNEDPYTFGGGTKLEIKR | binds
SC16.134 (antibody, V domains shown, murine mAb) VH: EVQLQQSGPDLVKPGASVKISCKASGYSFTGYYMHWVKQSHGKRLEWIGRVNPNNGGTNYNQKFKGKAILTVDKSSSTAYMELRSLTSEDSAVYYCARGSYDNAEGWGQGTLVTVSA VL: DIVLTQSPASLAVSLGQRATISCKASQSVDHAGDSYMNWYQQKPGQPPKLLIYAASNLESGIPARFSGSGSGTDFTLNIHPVEEEDAATYYCQQSNEDPYTFGGGTKLEIKR | binds
SC16.10 (antibody, V domains shown, murine mAb) VH: QVTLKESGPGILQSSQTLSLTCSFSGFSLSTSGMGVGWIRQPSGKGLEWLAHIWWDDVKRYNPVLKSRLTISKDTSSSQVFLKIASVDTADTATYYCARLVDDLYYFDYWGQGTTLTVSS VL: QIVLTQSPAIMSASLGERVTMTCTASSSVSSSYLHWYQQKPGSSPKLWIYSTSNLASGVPTRFSGSGSGTSYSLTISSMEAEDAATYYCHQYHRSPFTFGSGTKLEIK | binds
SC16.123 (antibody, V domains shown, murine mAb) VH: QVALKESGPGILQPSQTLSLTCSFSGFSLSTSGMGVGWIRQPSGKGLEWLAHIWWDDVKRYNPALKSRLTISKDTSSSQVFLKIASVDTADTATYYCARMEDYGSSSYFDFWGHGTTLTVSS VL: QIVLTQSPAIMSASLGERVTMTCTASSSVSSSYLHWYQQKPGSSPKLWIYSTSNLASGVPARFSGSGSGTSYSLTISSMETEDAATYYCHQYHRSPFTFGSGTKLEIK | binds
SC16.110 (antibody, V domains shown, murine mAb) VH: EVQLQQSGPGLVRTGASVKISCKASGYSFTGYYMHWVKQSHGKSLEWIGYISCYNGATTYNQNFKGKATFIVDTSSSTAYMQFNSLTSEDSAVYYCARSDGGHAMDYWGQGTSVTVSS VL: NIVMTQTPKFLLVSAGDRVTITCKASQSVSNDVAWYQQKPGQSPKLLIYYASNRYTGVPDRFTGSGYGTDFTFTISTVQAEDLAVYFCQQDYSSPPTFGGGTKLEIK | binds
SC16.107 (antibody, V domains shown, murine mAb) VH: EVQLQQSGPELVKPGASVKMSCKASGYTFTNYVMHWVKQKPGQGLEWIGYINPYNDGTKYNEKFKGKATLTSDKSSTTAYMALSSLTSEDSAVYYCAVAYYSNWGFAYWGQGTLVTVSA VL: DIVMTQSHKFMSTSVGDRVSITCKASQDVNTAVGWYQQKPGQSPKLLIYSASYRYTGVPDRFTGSGSGTDFTFTISSVQAEDLAVYYCQQHYSSPYTFGGGTKLEIKR | binds
SC16.122 (antibody, V domains shown, murine mAb) VH: EVQLVESGGGLVKPGGSLKLSCAASGFTFSDYYMFWVRQTPEKRLEWVATISDGGSYTYFPDSVKGRFTISRDNAQNNLYLQMSSLKSEDTAMYYCARAGTLYAMDYWGQGTSVTVSS VL: DIVMTQSQKFMSTSVGDRVSVTCKASQNVGTNVAWYQQKPGQSPKVLIYSASYRYSGVPDRFTGSGSGTDFTLTISNVQSEDLAEFFCQQYNSYPLTFGGGTKLEIK | binds
SC16.109 (antibody, V domains shown, murine mAb) VL: QIVLTQSPAIMSASPGEKVTMTCSASSSVSYMYWYQQKPGSSPRLLIYDTSNLASGVPVRFSGSGSGTSFSLTISRMEAEDTATYYCQEWSGNPLTFGDGTKLELK V domain: QIQLVQSGPELKKPGETVKISCKASGYTFTNYGMNWVKQAPGKGLKWMGWINTYTGEPAYADDFKGRFAFSLETSASAAYLQINNLKNEDTATFFCANMRPTRGFAYWGQGTLGTVSA | binds
SC16.117 (antibody, V domains shown, murine mAb) VH: QVQLKESGPGLVAPSQSLSIPCTVSGFSLTNYGVHWVRQPPGKGLEWLGVIWAGGITNYNSALMSRLSISEDNSKSQVFLKMNSLQTDDTAMYYCARNLGPYAMDYWGQGTSVTVSS VL: DIQMNQSPSSLSASLGDTITITCHVSQNINVWLSWYQQKPGNIPKLLIQKASNLHTGVPSRFSGSGSGTGFTLTISSLQPEDIATYYCQQGQSYPFTFGSGTKLEIK | binds
SC16.125 (antibody, V domains shown, murine mAb) VH: DVQLQESGPDLVKPSQSLSLTCTVTGYSITSGYSWHWIRQFPGNKLEWMGYIHYSGSTNYNPSLKSRISITRDTSKNQFFLQFKSVTTEDSATYYCALEGNYDGFAYWGQGTLVTVS VL: DIQMNQSPSSLSASLGDTITITCHASQNINVWLSWYQQKPGNIPKLLIYKASILHTGVPSRFSGSGSGTGFTLTISSLQPEDIATYSCQQGQSYPYTFGGGTKLEIK | binds
SC16.126 (antibody, V domains shown, murine mAb) VH: QVQMKESGPGLVAPSQSLSITCTVSGSSLTNYGVHWVRQPPGKGLEWLGVIWAGGSTNYNSALMSRLSISKDNSKSQVFLKMNSLQTDDTAMYYCARDWEGWFAYWGQGTLVTVSA VL: DIQMNQSPSSLSASLGDTITITCHASQNINVWLSWYQQKPGNIPKLLIYKASNLHTGVPSRFSGSGSGTGFTLTISSLQPEDIATYYCQQGQSYPFTFGSGTKLEIK | binds
SC16.121 (antibody, V domains shown, murine mAb) VH: EVQLVESGGGLVQPKGSLKLSCAASGFTFNTYAMNWVRQAPGKGLEWVARIRIKSNNYATYYADSVKDRFTISRDDSQNMLYLQMNNLKTEDTAVYYCVRQGYSYDWGPWFAYWGQGTLVTVSA VL: QIVLTQSPAIMSASPGEKVTITCSASSSVSYMHWFQQKPGTSPKLWIYSTSNLASGVPARFSGSGSGTSYSLTISRMEAEDAATYYCQQRSSYPPTFGGGTKLEIKR | binds
